Experimental data from patent publication US20240173421A1 (Seagen, published 2024).
Where two headings read alike, the source gives them in different places.

Columns and labels:
[1] = molecular target: T1, CD16a (FcγRIIIa) on Jurkat NFAT reporter cells (UniProt P08637 17-254, limits assumed); test: cell-based or functional assay
[2] = molecular target: FcgRIa (NFAT activity assay) (UniProt P12314 16-374); test: cell-based or functional assay
[3] = molecular target: T2, FcgRIIa (NFAT activity assay) (UniProt P12318 34-317); test: cell-based or functional assay
T2 sequence (looked up): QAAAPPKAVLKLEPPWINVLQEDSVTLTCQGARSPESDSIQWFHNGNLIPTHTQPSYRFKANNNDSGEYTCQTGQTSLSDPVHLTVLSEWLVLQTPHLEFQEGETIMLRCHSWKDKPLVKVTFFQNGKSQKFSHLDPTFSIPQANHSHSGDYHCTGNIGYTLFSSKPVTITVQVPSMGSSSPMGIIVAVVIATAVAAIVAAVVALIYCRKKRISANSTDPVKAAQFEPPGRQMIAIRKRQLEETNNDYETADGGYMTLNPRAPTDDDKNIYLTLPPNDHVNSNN

[4] = molecular target: T1, CD16a (FcγRIIIa) on Jurkat NFAT …; test: cell-based or functional assay; remark: listed apart in the source
[5] = molecular target: T1, CD16a (FcγRIIIa) on Jurkat NFAT …; test: cell-based or functional assay; remark: listed apart in the source
[6] = molecular target: T1, CD16a (FcγRIIIa) on Jurkat NFAT …; test: cell-based or functional assay; remark: listed apart in the source
[7] = molecular target: T1, CD16a (FcγRIIIa) on Jurkat NFAT …; test: cell-based or functional assay; remark: listed apart in the source
[8] = molecular target: T1, CD16a (FcγRIIIa) on Jurkat NFAT …; test: cell-based or functional assay; remark: listed apart in the source
[9] = molecular target: T1, CD16a (FcγRIIIa) on Jurkat NFAT …; test: cell-based or functional assay; remark: listed apart in the source
FcgRIIb = molecular target: T3, FcgRIIb (human, UniProt P31994 43-217, biotinylated); test: BLI, FcγR-monomeric Fc fusion on streptavidin sensor
T3 sequence (looked up): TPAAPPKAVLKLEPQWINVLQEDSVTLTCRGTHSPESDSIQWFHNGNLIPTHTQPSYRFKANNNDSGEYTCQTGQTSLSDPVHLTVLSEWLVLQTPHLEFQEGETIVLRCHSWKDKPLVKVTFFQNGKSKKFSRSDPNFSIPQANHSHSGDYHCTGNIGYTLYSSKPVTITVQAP

T1 sequence (P08637 17-254 limits assumed): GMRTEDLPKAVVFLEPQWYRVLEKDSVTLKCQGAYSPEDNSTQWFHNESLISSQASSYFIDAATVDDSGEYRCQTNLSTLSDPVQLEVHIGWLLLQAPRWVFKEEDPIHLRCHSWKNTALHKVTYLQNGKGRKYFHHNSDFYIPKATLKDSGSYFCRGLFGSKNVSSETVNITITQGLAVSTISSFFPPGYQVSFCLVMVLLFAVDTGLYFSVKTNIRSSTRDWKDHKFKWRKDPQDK
Chain of FcgRIa (NFAT activity assay) (P12314 16-374): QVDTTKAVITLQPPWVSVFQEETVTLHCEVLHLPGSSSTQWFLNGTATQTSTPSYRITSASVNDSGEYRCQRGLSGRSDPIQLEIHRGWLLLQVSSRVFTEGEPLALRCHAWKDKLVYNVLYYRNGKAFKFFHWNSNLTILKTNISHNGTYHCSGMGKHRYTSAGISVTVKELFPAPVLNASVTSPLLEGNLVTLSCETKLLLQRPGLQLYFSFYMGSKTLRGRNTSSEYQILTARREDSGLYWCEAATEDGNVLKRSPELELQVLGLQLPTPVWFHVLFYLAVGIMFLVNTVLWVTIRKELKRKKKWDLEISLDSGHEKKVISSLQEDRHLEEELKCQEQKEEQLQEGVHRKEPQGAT

B1: Anti-CD40-WT (antibody, human IgG1, kappa)
heavy: not shown
light: DIQMTQSPSSLSASVGDRVTITCRSSQSLVHSNGNTFLHWYQQKPGKAPKLLIYTVSNRFSGVPSRFSGSGSGTDFTLTISSLQPEDFATYFCSQTTHVPWTFGQGTKVEIKRTVAAPSVFIFPPSDEQLKSGTASVVCLLNNFYPREAKVQWKVDNALQSGNSQESVTEQDSKDSTYSLSSTLTLSKADYEKHKVYACEVTHQGLSSPVTKSFNRGEC
- EC50, NFAT activity assay [1]: 0.16 µg/mL
- EC50, NFAT activity assay [2]: 0.09 µg/mL
- EC50, NFAT activity assay [3]: 0.08 µg/mL

B2: Anti-CD40-AF-10 (antibody, human IgG1, kappa)
heavy: not shown
light: B1 light
modifications: reduced interchain-disulfide cysteine carries compound 10; afucosylated N-glycan; reduced interchain-disulfide cysteines carry compound 10 (maleimidopropionyl-PEG48)
- EC50, NFAT activity assay [1]: 2.09 µg/mL
- EC50, NFAT activity assay [2]: 3.73 µg/mL
- EC50, NFAT activity assay [3]: 227 µg/mL

B3: Anti-CD40-AF (afucosylated) (antibody, human IgG1, kappa)
heavy: not shown
light: B1 light
- EC50, NFAT activity assay [1]: 0.05 µg/mL
- EC50, NFAT activity assay [2]: 0.07 µg/mL
- EC50, NFAT activity assay [3]: 0.09 µg/mL
- EC50 (read off the curve), FcγRIIIa NFAT reporter assay [4]: ~0.001 µg/mL
- EC50 (read off the curve), FcγRIIIa NFAT reporter assay [5]: ~0.001 µg/mL
- EC50 (read off the curve), FcγRIIIa NFAT reporter assay [6]: ~0.01 µg/mL
- EC50 (read off the curve), FcγRIIIa NFAT reporter assay [7]: ~0.01 µg/mL
- EC50 (read off the curve), CD16a NFAT reporter assay [8]: ~0.003 µg/mL

B4: Anti-CD40-AF-9(8) (antibody, human IgG1, kappa)
heavy: not shown
light: B1 light
modifications: reduced interchain-disulfide cysteine carries compound 9; afucosylated N-glycan; reduced interchain-disulfide cysteines carry compound 9 (maleimidopropionyl-PEG12)
- EC50, NFAT activity assay [1]: 0.22 µg/mL
- EC50, NFAT activity assay [2]: 0.35 µg/mL
- EC50, NFAT activity assay [3]: 14.3 µg/mL

B5: Anti-CD40-AF-1(8) (antibody)
heavy: not shown
light: B1 light
modifications: reduced interchain-disulfide cysteine carries compound 1; afucosylated N-glycan; reduced interchain-disulfide cysteines carry compound 1 (disulfide-PEG12)
- EC50 (read off the curve), FcγRIIIa NFAT reporter assay [9]: ~0.007 µg/mL

B6: Anti-CD40-AF-1(2) (antibody, human IgG1, kappa)
heavy: not shown
light: B1 light
modifications: afucosylated N-glycan; compound 1 (disulfide-PEG12) on reduced interchain-disulfide cysteines, 2 per antibody, sites not stated
notes: 2 BPM per antibody; also called Anti-CD40-AF-1 2-load
- EC50 (read off the curve), FcγRIIIa NFAT reporter assay [6]: ~0.003 µg/mL
- Kd (FcgRIIb): 21 µM

B7: Anti-CD40-AF-12 with 2 load (antibody, human IgG1, kappa)
heavy: not shown
light: B1 light
modifications: afucosylated N-glycan; compound 12 (maleimidocaproyl-PEG12) on reduced interchain-disulfide cysteines, 2 per antibody, sites not stated
- EC50 (read off the curve), FcγRIIIa NFAT reporter assay [7]: ~0.001 µg/mL

B8: Anti-CD40-AF-17 (antibody, human IgG1, kappa)
heavy: not shown
light: B1 light
modifications: reduced interchain-disulfide cysteine carries compound 17; afucosylated N-glycan; reduced interchain-disulfide cysteines carry compound 17 (maleimidocaproyl-(PEG4)2)
- EC50 (read off the curve), FcγRIIIa NFAT reporter assay [4]: ~0.007 µg/mL

B9: Anti-CD40-AF-12 with 4 load (antibody, human IgG1, kappa)
heavy: not shown
light: B1 light
modifications: afucosylated N-glycan; compound 12 (maleimidocaproyl-PEG12) on reduced interchain-disulfide cysteines, 4 per antibody, sites not stated
- EC50 (read off the curve), FcγRIIIa NFAT reporter assay [7]: ~0.002 µg/mL

B10: Anti-CD40-AF-1(4) (antibody, human IgG1, kappa)
heavy: not shown
light: B1 light
modifications: afucosylated N-glycan; compound 1 (disulfide-PEG12) on reduced interchain-disulfide cysteines, 4 per antibody, sites not stated
notes: 4 BPM per antibody; also called Anti-CD40-AF-1 4-load
- Kd (FcgRIIb): 22 µM

B11: Anti-CD40-AF-1(6) (antibody, human IgG1, kappa)
heavy: not shown
light: B1 light
modifications: afucosylated N-glycan; compound 1 (disulfide-PEG12) on reduced interchain-disulfide cysteines, 6 per antibody, sites not stated
notes: 6 BPM per antibody; also called Anti-CD40-AF-1 6-load
- Kd (FcgRIIb): 25 µM
